The values below come from publication PMC8327961, “Nse5/6 inhibits the Smc5/6 ATPase and modulates DNA substrate binding” (The EMBO Journal, 2021).

The target in series [1] is Smc5/6 octamer (hexamer plus Nse5/6) (Saccharomyces cerevisiae, UniProt Q08204;Q12749;Q07913;P38632;Q05541;P43124;Q03718;P40026 …). Description: fluorescence anisotropy. The conditions noted are these: ATPase buffer: 10 mM Hepes-KOH pH 7.5, 150 mM K-OAc, 2 mM MgCl2, 20% glycerol; anisotropy at 25 C; plasmid pulldown bound at room temperature, high-salt buffer …. A general note: Fluorescence polarisation rises when a labelled molecule tumbles more slowly, as on binding a larger partner.

The target in series [2] is Smc5/6 hexamer (Smc5, Smc6, Nse1, Nse2, Nse3, Nse4) (Saccharomyces cerevisiae) (UniProt Q08204+Q12749+Q07913+P38632+Q05541+P43124). In words: fluorescence anisotropy. The conditions noted are these: ATPase buffer: 10 mM Hepes-KOH pH 7.5, 150 mM K-OAc, 2 mM MgCl2, 20% glycerol; anisotropy at 25 C; plasmid pulldown bound at room temperature, high-salt buffer ….
For series [3], the target named is T1, Smc6 (Twin-Strep-tag removed, as in the octamer for lysine cross-linking) (S. cerevisiae, UniProt Q12749 1-1114).
T1 construct: Smc6, S. cerevisiae; subunit of the octamer used for XL-MS; source: E. coli (DE3) Rosetta, purified as part of the hexamer; tag removed by HRV-3C before SEC of the octamer; not shown: Twin-Strep (after a 3C site), C-terminal, cleaved
T1 sequence (looked up): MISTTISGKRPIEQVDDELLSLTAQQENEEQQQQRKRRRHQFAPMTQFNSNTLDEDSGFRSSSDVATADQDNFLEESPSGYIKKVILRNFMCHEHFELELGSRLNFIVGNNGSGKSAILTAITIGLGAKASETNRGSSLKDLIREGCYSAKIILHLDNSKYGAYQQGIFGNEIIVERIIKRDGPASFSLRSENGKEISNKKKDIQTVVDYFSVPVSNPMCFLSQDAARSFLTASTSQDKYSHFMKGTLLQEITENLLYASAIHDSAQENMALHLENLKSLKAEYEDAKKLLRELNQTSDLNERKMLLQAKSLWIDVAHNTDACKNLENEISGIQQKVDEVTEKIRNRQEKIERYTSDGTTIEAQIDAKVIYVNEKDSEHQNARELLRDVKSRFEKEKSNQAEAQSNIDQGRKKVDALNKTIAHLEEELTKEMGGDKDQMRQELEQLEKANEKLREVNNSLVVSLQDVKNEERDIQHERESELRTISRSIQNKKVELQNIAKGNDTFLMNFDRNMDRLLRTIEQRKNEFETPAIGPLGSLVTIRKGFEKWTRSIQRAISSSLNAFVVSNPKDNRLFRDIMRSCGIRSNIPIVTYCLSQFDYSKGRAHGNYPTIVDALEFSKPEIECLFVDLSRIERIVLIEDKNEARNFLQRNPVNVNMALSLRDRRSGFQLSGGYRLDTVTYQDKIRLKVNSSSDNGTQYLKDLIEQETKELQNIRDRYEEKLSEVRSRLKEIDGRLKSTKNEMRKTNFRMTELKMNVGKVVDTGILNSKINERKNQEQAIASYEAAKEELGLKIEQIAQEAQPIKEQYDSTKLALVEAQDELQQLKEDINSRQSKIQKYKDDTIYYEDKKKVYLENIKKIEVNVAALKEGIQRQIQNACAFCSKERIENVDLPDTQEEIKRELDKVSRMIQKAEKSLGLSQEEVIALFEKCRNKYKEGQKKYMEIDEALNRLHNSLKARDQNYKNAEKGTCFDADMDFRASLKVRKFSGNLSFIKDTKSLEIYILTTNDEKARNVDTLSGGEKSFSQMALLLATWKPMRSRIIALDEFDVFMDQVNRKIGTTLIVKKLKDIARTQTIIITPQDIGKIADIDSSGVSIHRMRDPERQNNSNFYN
Description: cross-linking; XL-MS with PhoX (0.25 mM, 20 min, RT) on the octamer, 1.6 µM; ATPase buffer (10 mM Hepes-KOH pH 7.5, 150 mM potassium acetate, 2 mM MgCl2, 20% glycerol); without and with 2 mM ATP and 16 nM plasmid DNA; wild-type and Smc5(EQ)/Smc6(EQ) octamers. The conditions noted are these: both partners purified.

The target in series [4] is T1, Smc6 (Twin-Strep-tag removed, as in the …). In words: cross-linking; XL-MS with the lysine-reactive PhoX (0.25 mM, 20 min, RT) on the reconstituted octamer, 1.6 µM; salt buffer 20 mM Hepes-KOH pH 7.5, 250 mM NaCl. As to conditions: both partners purified.
The target of another series is T2, Nse1/3/4 sub-complex (S. cerevisiae, UniProt Q07913 1-336; Q05541 1-303; P43124 1-402).
T2 construct: Nse1, S. cerevisiae; Nse3, S. cerevisiae; Nse4, S. cerevisiae; used where the text names only the module as the partner of a cross-link and not which subunit; also called Nse1/3/4 module; Nse4/3/1 module; source: E. coli (DE3) Rosetta, purified as part of the hexamer and octamer; copies: + +
T2 sequence (looked up) 1: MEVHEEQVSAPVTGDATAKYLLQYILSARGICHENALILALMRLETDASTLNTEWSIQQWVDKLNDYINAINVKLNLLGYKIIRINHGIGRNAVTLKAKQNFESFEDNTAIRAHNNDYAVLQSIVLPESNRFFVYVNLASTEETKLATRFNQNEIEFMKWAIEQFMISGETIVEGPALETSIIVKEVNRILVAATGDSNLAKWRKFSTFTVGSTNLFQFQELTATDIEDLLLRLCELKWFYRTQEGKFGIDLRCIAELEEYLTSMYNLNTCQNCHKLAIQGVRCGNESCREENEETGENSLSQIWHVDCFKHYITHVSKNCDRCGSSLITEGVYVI
T2 sequence (looked up) 2: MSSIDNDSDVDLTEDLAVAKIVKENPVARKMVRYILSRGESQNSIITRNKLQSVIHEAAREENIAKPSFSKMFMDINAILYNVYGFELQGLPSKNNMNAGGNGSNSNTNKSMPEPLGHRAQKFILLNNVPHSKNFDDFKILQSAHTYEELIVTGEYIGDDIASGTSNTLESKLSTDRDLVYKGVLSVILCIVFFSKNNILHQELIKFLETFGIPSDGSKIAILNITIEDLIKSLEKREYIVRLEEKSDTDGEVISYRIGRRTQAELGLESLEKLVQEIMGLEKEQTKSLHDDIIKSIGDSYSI
T2 sequence (looked up) 3: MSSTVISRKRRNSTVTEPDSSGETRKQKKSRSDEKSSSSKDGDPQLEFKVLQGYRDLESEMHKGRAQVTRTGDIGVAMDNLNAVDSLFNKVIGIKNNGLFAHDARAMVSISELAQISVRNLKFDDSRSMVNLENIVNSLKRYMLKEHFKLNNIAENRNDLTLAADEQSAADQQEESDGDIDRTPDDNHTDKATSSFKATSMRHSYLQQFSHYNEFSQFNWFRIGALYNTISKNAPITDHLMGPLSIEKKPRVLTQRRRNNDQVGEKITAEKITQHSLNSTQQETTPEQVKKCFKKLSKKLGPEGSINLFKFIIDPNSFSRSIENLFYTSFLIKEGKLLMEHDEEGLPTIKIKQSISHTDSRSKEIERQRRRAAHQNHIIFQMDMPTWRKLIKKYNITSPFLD
Described as above. As to conditions: both partners purified.

For orientation: Kd means a measure of binding affinity in units of concentration.

Chain of Smc5/6 octamer (hexamer plus Nse5/6) (P40026 whole entry, one chain of several): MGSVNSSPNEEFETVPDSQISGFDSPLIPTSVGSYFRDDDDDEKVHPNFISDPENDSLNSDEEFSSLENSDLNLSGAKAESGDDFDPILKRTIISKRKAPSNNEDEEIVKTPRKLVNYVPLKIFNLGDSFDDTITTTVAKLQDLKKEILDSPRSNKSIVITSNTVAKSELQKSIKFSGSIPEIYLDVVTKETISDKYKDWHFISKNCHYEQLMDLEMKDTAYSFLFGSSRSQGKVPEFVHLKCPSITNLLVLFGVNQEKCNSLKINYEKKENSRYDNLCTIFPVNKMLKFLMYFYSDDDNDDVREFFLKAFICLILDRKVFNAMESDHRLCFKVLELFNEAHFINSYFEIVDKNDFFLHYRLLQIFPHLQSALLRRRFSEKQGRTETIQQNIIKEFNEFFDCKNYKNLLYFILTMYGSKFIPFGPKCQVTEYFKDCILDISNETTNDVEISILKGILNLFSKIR

Consider 40-mer ssDNA, for which the values for the Kd in series [1] and in series [2] were 100 nM and 150 nM, respectively.

B1: Nse3 (natural protein, S. cerevisiae, UniProt Q05541 1-303, looked up)
chain: T2 sequence (looked up) 2
notes: Nse3, S. cerevisiae; source: E. coli (DE3) Rosetta, co-expressed with the other subunits of the hexamer, purified as part of the complex
With B1, in series [3], the binding result is on record as “binds”.

B2: Nse2 (natural protein, S. cerevisiae, UniProt P38632 1-267, looked up)
chain: MALNDNPIPKSVPLHPKSGKYFHNLHARDLSNIYQQCYKQIDETINQLVDSTSPSTIGIEEQVADITSTYKLLSTYESESNSFDEHIKDLKKNFKQSSDACPQIDLSTWDKYRTGELTAPKLSELYLNMPTPEPATMVNNTDTLKILKVLPYIWNDPTCVIPDLQNPADEDDLQIEGGKIELTCPITCKPYEAPLISRKCNHVFDRDGIQNYLQGYTTRDCPQAACSQVVSMRDFVRDPIMELRCKIAKMKESQEQDKRSSQAIDVL
notes: Nse2, S. cerevisiae; source: E. coli (DE3) Rosetta, co-expressed with the other subunits of the hexamer, purified as part of the complex
For the molecule B2, the binding result in series [3] is “binds”.

B3: Smc5 (natural protein, S. cerevisiae, UniProt Q08204 1-1093, looked up)
chain: MTSLIDLGRYVERTHHGEDTEPRSKRVKIAKPDLSSFQPGSIIKIRLQDFVTYTLTEFNLSPSLNMIIGPNGSGKSTFVCAVCLGLAGKPEYIGRSKKVEDFIKNGQDVSKIEITLKNSPNVTDIEYIDARDETIKITRIITRSKRRSDYLINDYQVSESVVKTLVAQLNIQLDNLCQFLSQERVEEFARLKSVKLLVETIRSIDASLLDVLDELRELQGNEQSLQKDLDFKKAKIVHLRQESDKLRKSVESLRDFQNKKGEIELHSQLLPYVKVKDHKEKLNIYKEEYERAKANLRAILKDKKPFANTKKTLENQVEELTEKCSLKTDEFLKAKEKINEIFEKLNTIRDEVIKKKNQNEYYRGRTKKLQATIISTKEDFLRSQEILAQTHLPEKSVFEDIDIKRKEIINKEGEIRDLISEIDAKANAINHEMRSIQRQAESKTKSLTTTDKIGILNQDQDLKEVRDAVLMVREHPEMKDKILEPPIMTVSAINAQFAAYLAQCVDYNTSKALTVVDSDSYKLFANPILDKFKVNLRELSSADTTPPVPAETVRDLGFEGYLSDFITGDKRVMKMLCQTSKIHTIPVSRRELTPAQIKKLITPRPNGKILFKRIIHGNRLVDIKQSAYGSKQVFPTDVSIKQTNFYQGSIMSNEQKIRIENEIINLKNEYNDRKSTLDALSNQKSGYRHELSELASKNDDINREAHQLNEIRKKYTMRKSTIETLREKLDQLKREARKDVSQKIKDIDDQIQQLLLKQRHLLSKMASSMKSLKNCQKELISTQILQFEAQNMDVSMNDVIGFFNEREADLKSQYEDKKKFVKEMRDTPEFQSWMREIRSYDQDTKEKLNKVAEKYEEEGNFNLSFVQDVLDKLESEIAMVNHDESAVTILDQVTAELRELEHTVPQQSKDLETIKAKLKEDHAVLEPKLDDIVSKISARFARLFNNVGSAGAVRLEKPKDYAEWKIEIMVKFRDNAPLKKLDSHTQSGGERAVSTVLYMIALQEFTSAPFRVVDEINQGMDSRNERIVHKAMVENACAENTSQYFLITPKLLTGLHYHEKMRIHCVMAGSWIPNPSEDPKMIHFGETSNYSFD
notes: Smc5, S. cerevisiae; stood in the assays as a subunit of the hexamer or octamer; source: E. coli (DE3) Rosetta, co-expressed with the other subunits of the hexamer, purified as part of the complex
B3: the binding result in series [4] was “binds”.

B4: Nse5-AviTag (from Nse5-AviTag-3C-Twin-Strep, Twin-Strep removed) (natural protein, S. cerevisiae, UniProt Q03718 1-556, looked up)
chain: MDGALINSVLYVSPRNGAHYFVELTEKHLLAFEMLNSMCLLENYDHVLLFLECQFGKSHNLAVIPFDIILVLFTLSTLSEYYKEPILRANDPYNTSRETLSRRALKLLQKYLAILKEFDSEQYNLYDLELLRCQFFLAIDTLTPKKQKWGFDRFRRTKSESGVTYRQNASVDPELDQAKTFKNPYRSYISCLEQRNTILGNRLLNLKLNEPGEFINMILWTLSNSLQESTPLFLSSHEIWMPLLEILIDLFSCRQDYFIQHEVAQNVSKSLFVQRLSESPLAVFFESLNTRNFANRFSEYVFLNCDYKLPSDNYATPVHPVYNGENTIVDTYIPTIKCSPLYKSQKSLALRRKLIGSCFKLLLRVPDGHRLITPRIVADDVIQGISRTLASFNDILQFKKFFMTENLSQESYFIPLLAEGTLSEILKDTQECVVILTLVENLSDGVSFCNEVIGLVKSKCFAFTEQCSQASYEEAVLNIEKCDVCLLVLLRYLLHLIGTEAILDAKEQLEMLHAIEKNDSGRRQWAKALNLGNDPPLLYPIVSQMFGVHDKSVIIE
notes: Nse5, S. cerevisiae, full length; subunit of the octamer used for XL-MS; the AviTag lies before the 3C site and should remain; source: E. coli (DE3) Rosetta, co-expressed with Nse6, purified (StrepTrap, heparin, SEC); Twin-Strep removed by HRV-3C; not shown: Twin-Strep (after a 3C site), C-terminal, cleaved
For B4, the binding result (in series [4]; with Nse1/3/4 sub-complex) was “binds” each time.

B5: Nse4 (natural protein, S. cerevisiae, UniProt P43124 1-402, looked up)
chain: T2 sequence (looked up) 3
notes: Nse4, S. cerevisiae; also called kleisin Nse4; source: E. coli (DE3) Rosetta, co-expressed with the other subunits of the hexamer, purified as part of the complex
In the case of B5, in series [3], the binding result is “binds”.
